By Km is commonly meant the concentration of substrate that gives half-maximal velocity. What is called kcat is the maximal rate divided by the concentration of active sites. A word on the kcat/Km: it is the turnover number divided by the Michaelis constant.

Substrate in series [1]: CC(C)=CCC/C(C)=C/COP(=O)(O)OP(=O)(O)O
Put plainly: FPPS synthase assay. Conditions: co-substrate IPP. The series is classed as biochemical, Homo sapiens. From the text:
(§1) FPPS synthase assay on human farnesyl pyrophosphate synthase (FPPS; wtFPPS)

Substrate in series [2]: C=C(C)CCO[P@@](=O)(O)OP(=O)(O)O
Briefly: FPPS synthase assay. The settings on record: co-substrate GPP. It counts as biochemical, Homo sapiens.
Text: as §1

B1: human farnesyl pyrophosphate synthase (FPPS; wtFPPS) (Homo sapiens) (protein)
chain: MNGDQNSDVYAQEKQDFVQHFSQIVRVLTEDEMGHPEIGDAIARLKEVLEYNAIGGKYNRGLTVVVAFRELVEPRKQDADSLQRAWTVGWCVELLQAFFLVADDIMDSSLTRRGQICWYQKPGVGLDAINDANLLEACIYRLLKLYCREQPYYLNLIELFLQSSYQTEIGQTLDLLTAPQGNVDLVRFTEKRYKSIVKYKTAFYSFYLPIAAAMYMAGIDGEKEHANAKKILLEMGEFFQIQDDYLDLFGDPSVTGKIGTDIQDNKCSWLVVQCLQRATPEQYQILKENYGQKEAEKVARVKALYEELDLPAVFLQYEEDSYSHIMALIEQYAAPLPPAVFLGLARKIYKRRK
notes: recombinant, pET-28a based LIC vector; TEV protease-cleaved for crystals; homodimer of 42 kDa monomers
For the protein B1, in series [1], the Km turned out to be 2.1 ± 0.2 µM, the catalytic constant (kcat) was 0.42 s⁻¹ and the kcat/Km is 200000 M⁻¹ s⁻¹. In addition, in series [2], the Km was 1.8 ± 0.3 µM, the kcat came to 0.42 s⁻¹ and the kcat/Km was 230000 M⁻¹ s⁻¹.

(Values after article PMC4652608, “The inhibition of human farnesyl pyrophosphate synthase by nitrogen-containing bisphosphonates. Elucidating the role of active site threonine 201 and tyrosine 204 residues using enzyme mutants^” (Bone, 2015).)
